Results taken from patent US20210061875A1.

Columns and labels:
[1] = target: myelin oligodendrocyte glycoprotein 35-55 peptide (MOG35-55) in the context of I-A(b) (mouse; murine) (UniProt P14434)
[2] = target: ovalbumin 323-329 peptide (OVA323-339) in the context of I-A(b) (murine) (UniProt P01012)
[3] = target: myelin oligodendrocyte glycoprotein 35-55 peptide (MOG35-55) in the context of I-A(b) (mouse; murine) (UniProt P14434); remark: listed apart in the source
[4] = target: ovalbumin 323-329 peptide (OVA323-339) in the context of I-A(b) (murine) (UniProt P01012); remark: listed apart in the source

Q: Which Cytotoxicity (specific lysis of peptide-pulsed splenocytes, in vitro, 3 days) [1] does the source give for 2D2 TCR here?
A: The Cytotoxicity (specific lysis of peptide-pulsed splenocytes, in vitro, 3 days) was 17%.

Q: And the Cytotoxicity (specific lysis of peptide-pulsed splenocytes, in vitro, 3 days) [2]?
A: The Cytotoxicity (specific lysis of peptide-pulsed splenocytes, in vitro, 3 days) was 3%.

Q: What about the Ratio of MOG/OVA pulsed APC (in vivo cytotoxicity, spleen after 48 hours) (ratio of MOG/OVA pulsed APC) [3] of the same substance?
A: Its Ratio of MOG/OVA pulsed APC (in vivo cytotoxicity, spleen after 48 hours) (ratio of MOG/OVA pulsed APC) is 0.7.

Q: OT-II TCR was tested. Which Cytotoxicity (specific lysis of peptide-pulsed splenocytes, in vitro, 3 days) [1] did it give?
A: The Cytotoxicity (specific lysis of peptide-pulsed splenocytes, in vitro, 3 days) was 4%.

Q: And the Cytotoxicity (specific lysis of peptide-pulsed splenocytes, in vitro, 3 days) [2]?
A: Its Cytotoxicity (specific lysis of peptide-pulsed splenocytes, in vitro, 3 days) is 32%.

Q: What about the Ratio of MOG/OVA pulsed APC (in vivo cytotoxicity, spleen after 48 hours) (ratio of MOG/OVA pulsed APC) [4] of the same substance?
A: The Ratio of MOG/OVA pulsed APC (in vivo cytotoxicity, spleen after 48 hours) (ratio of MOG/OVA pulsed APC) was 6.2.
